{"source": "paper doi:10.1101/2020.03.15.992883", "about": "(2020)", "binders": {"B1": {"name": "CR3022 IgG (human IgG1, kappa) (antibody, V domains shown)", "VH": "EVQLVQSGTEVKKPGESLKISCKGSGYGFITYWIGWVRQMPGKGLEWMGIIYPGDSETRYSPSFQGQVTISADKSINTAYLQWSSLKASDTAIYYCAGGSGISTPMDVWGQGTTVTVSS", "VL": "not shown"}}, "molecular_target": "SARS-CoV-2 S receptor-binding domain (RBD) with C-terminal His6 tag (SARS-CoV-2, glycan N343)", "test": "BLI"}
{"binder": "B1", "values": [{"measurement": "Kd", "result": 12.4, "unit": "nM"}]}
